The text below walks through data of patent publication US20040122077.

Data set [1] concerns T1, wild type eNOS peptide 1174-RIRTQSFSLQERHLRGAVPWA-1194.
T1 sequence: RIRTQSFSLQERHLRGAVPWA

Data set [2] relates to T2, mutant eNOS peptide (1174-1194) with serine 1179 substituted by alanine.
T2 sequence: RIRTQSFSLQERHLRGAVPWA

In another data set the target is T3, endogenous eNOS of HUVEC (UniProt P29474).
T3 sequence: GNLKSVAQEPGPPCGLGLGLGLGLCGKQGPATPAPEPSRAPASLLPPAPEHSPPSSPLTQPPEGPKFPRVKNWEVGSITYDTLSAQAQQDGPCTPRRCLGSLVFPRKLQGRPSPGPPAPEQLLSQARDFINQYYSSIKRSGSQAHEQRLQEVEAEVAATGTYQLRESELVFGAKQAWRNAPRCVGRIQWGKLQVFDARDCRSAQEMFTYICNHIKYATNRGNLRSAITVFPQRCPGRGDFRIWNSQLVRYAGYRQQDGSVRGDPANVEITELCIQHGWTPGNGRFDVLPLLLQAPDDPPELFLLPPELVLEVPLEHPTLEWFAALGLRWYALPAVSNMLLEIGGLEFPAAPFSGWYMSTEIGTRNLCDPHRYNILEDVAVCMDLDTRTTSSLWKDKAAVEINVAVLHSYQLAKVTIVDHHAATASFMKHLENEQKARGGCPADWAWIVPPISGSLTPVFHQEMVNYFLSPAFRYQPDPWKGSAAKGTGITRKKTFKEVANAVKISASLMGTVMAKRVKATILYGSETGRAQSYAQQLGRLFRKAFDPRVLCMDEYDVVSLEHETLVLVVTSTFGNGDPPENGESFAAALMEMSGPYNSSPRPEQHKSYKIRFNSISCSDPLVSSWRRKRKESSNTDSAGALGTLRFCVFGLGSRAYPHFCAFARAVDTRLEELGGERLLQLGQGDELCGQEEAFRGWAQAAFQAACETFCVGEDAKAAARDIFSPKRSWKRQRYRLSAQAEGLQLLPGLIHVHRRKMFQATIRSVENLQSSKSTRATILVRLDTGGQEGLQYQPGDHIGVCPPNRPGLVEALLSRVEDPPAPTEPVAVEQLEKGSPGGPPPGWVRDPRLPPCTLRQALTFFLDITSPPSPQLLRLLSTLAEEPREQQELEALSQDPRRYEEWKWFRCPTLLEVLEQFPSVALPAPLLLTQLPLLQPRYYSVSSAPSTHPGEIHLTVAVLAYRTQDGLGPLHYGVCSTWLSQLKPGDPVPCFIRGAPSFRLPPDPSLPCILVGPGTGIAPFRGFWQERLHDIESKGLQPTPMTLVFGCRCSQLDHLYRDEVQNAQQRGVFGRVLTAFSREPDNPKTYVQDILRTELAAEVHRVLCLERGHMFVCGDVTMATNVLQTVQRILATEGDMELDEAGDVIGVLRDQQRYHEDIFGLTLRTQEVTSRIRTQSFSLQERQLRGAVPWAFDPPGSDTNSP

As to “Akt immunoprecipitated from HUVEC lysate with goat polyclonal anti-Akt1 antibody”, the “32P incorporation into eNOS peptide by immunoprecipitated Akt (in vitro kinase assay)” value in data set [1] is recorded as “Activation of Akt kinase activity was also observed when lysates prepared from simvastatin-treated cells were tested for their ability to phosphorylate a peptide containing the Akt phosphorylation site of eNOS (amino acids 1174 to 1194)”; in data set [2], “a peptide with alanine substituted for serine at position 1179 did not incorporate appreciable phosphate under any condition tested”. Moreover, in the data set with histone H2B, the “phosphorylation of histone H2B by immunoprecipitated Akt (autoradiography)” value is listed as “Akt polypeptide kinase activity was increased in lysates of HUVEC treated with 1.0 µM simvastatin or 100 ng/ml VEGF”.

For “constitutively-active Akt (myrAkt), expressed in HUVEC from an adenovirus”, the “32P-phosphate incorporation into endogenous eNOS in HUVEC (immunoprecipitation, autoradiography)” value with endogenous eNOS of HUVEC is listed as “adenovirus-mediated transduction of constitutively-active Akt (myrAkt) led to the incorporation of phosphate into eNOS in the absence of stimulation with simvastatin or VEGF”.
